Measurements reported in the supplement of paper PMC11865577.

How the values were obtained:
Experiment in all cases: pull-down binding Z-score (relative to library population); higher = stronger binding
Conditions in all cases: RNA library: Library-2
TO-N3 (biotin conjugate) = system: TO-N3 (biotin conjugate)
Procedure, shortened: (§1)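 Cy5- or Cy3-end-labelled RNA library (1 μg) was heat-folded in phosphate/NaCl/KCl buffer and incubated 60 min at 25 °C with streptavidin beads carrying 100 pmol biotin-conjugated small molecule. After three washes, bound RNA was eluted in hot SDS and hybridised 20 h at 55.5 °C to a DNA barcode microarray. Binding was scored by subtracting a beads-only control, averaging barcoded replicate probes after dropping highest and lowest, and converting to a Z-score against library mean and standard deviation.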

[1] = system: TO-N3-2 (biotin conjugate)
Procedure, shortened: as §1

[2] = system: TO-3-N3 (biotin conjugate)
Procedure, shortened: as §1

[3] = system: TO-3-N3-2 (biotin conjugate)
Procedure, shortened: as §1

Sequence	pull-down binding Z-score (TO-N3 (biotin conjugate))	pull-down binding Z-score [1]	pull-down binding Z-score [2]	pull-down binding Z-score [3]
GCUGUUGGUACCAAUUUACCUUUACAGC [SHAPE_invitro_SARS-CoV-2_Motif_335]	0.215	-0.561	0.416	-0.037
GGUGUUGCAGGAGCCUUAAAUAAGGCUACUAACAAUGCC [SHAPE_invivo_SARS-CoV-2_Motif_68]	-0.882	-1.05	-0.697	-0.474
AUGAGAAGUGCUCUGCCUAUACAGUUGAACUCGGUACAGAAGUAAAUGAGUUCGCCUGUGUUGUGGCAGAUGCUGUCAU [SHAPE_invitro_SARS-CoV-2_Motif_53]	0.461	2.07	-0.626	-0.278
GCAGCCAAACUAAUGGUUGU	0.574	0.312	0.609	0.228
GCUGGUCUGACUCACAUGAUGAUCUGGC [IAV_invivo_NP_5_Motif_8+IAV_invivo_NP_5_Motif_8]	-0.454	0.653	-0.624	-0.265
GAGACGGUCGGGUCCAGAUAUUCGUAUCUGUCGAGUAGAGUGUGGGCUCC [Broccoli]	1.12	1.99	0.184	0.495
GUUUUAAUUAUGCUUAUUAUCUUUUGGUUCUCACUUGAACUGCAAGAUCAUAAUGAAAC	-0.503	-1.02	-0.212	-0.144
ACCAGGAGUUUUCUGUGGUGUAGAUGCUGUAAAUUUACUUACUAAUAUGUUUACACCACUAAUUCAACCUAUUGGU [SHAPE_invitro_SARS-CoV-2_Motif_181]	-0.0352	-0.878	-0.0454	-0.13
CCAAGGAAAUUUUGG	-0.373	-0.948	-0.192	-0.382
UGGUGUUAGAAGGUCCUUUUAUGUCUAUGCUAAUGGAGGUAAAGGCUUUUGCAAACUA [SHAPE_invitro_SARS-CoV-2_Motif_149]	-0.58	-0.562	-0.638	-0.276
AUAAUAAGAGGCUGGAUUUUUGGUACUACUUUAGAUUCGAAGACCCAGUCCCUACUUAUUGU	-0.881	-0.612	-0.735	-0.168
GCUAGUCUUAAUGGAGUCACAUUAAUUGGAGAAGC	0.474	0.337	0.378	0.112
GUUGUUACUCACAAUUUUGACUUCACUUUUAGUUUUAGUCCAGAGUACUCAAU	-0.965	-0.924	-0.826	-0.324
AAGGUAAAACCAACAGUGGUUGUUAAUGCAGCCAAUGUUUACCUU [DMSMaPseq_invitro_SARS-CoV-2_Motif_60]	-0.792	-0.952	-0.572	-0.217
UAAUAACGCUACUAAUGUUGUUAUUA	-1.02	-1.73	-0.595	-0.411
GCUUUGUCCAAAAUGCCCUUAAUGGGAACGGGGAUCCAAAUAACAUGGACAAAGC [IAV_invivo_M1_M2_7_Motif_6+IAV_invivo_M1_M2_7_Motif_6]	-0.155	-0.236	0.0624	0.353
GCUAGUGGGGGACAACCAAUCACUAAUUGUGUUAAGAUGUUGUGUACACACACUGGU	1.03	0.564	0.789	0.649
CACAUCUAGGUUUCGUCCGGGUGUG [SARS-CoV-2-Conserved-Structured-16_Interval-158-277_Motif_2]	0.254	-0.319	0.468	-0.459
GGAAUAAGUACGAUACUUACCUG [U1snRNP5ss-5]	0.464	1.56	-0.215	0.089
CCUUCACUGUAGAAAAAGG [SHAPE_invivo_SARS-CoV-2_Motif_423]	-0.772	-0.52	-0.468	-0.29
GAGGGGUGUAUACUGCUGCCGUGAACAUGAGCAUGAAAUUGCUUGGUACACGGAACGUUCUGAAAAGAGCUAUGAAUUGCAGACACCUUUU	-0.034	0.475	-0.406	-0.11
CUGGUCCAUGCUCAUACCCAAGCAGAAAGUGGCAGGCCCUCUUUGUAUCAGAAUGGACCAG [IAV_invivo_NS1_NEP_8_Motif_8+IAV_invivo_NS1_NEP_8_Motif_8]	-0.453	0.562	-0.528	-0.24

Sequence	pull-down binding Z-score (TO-N3 (biotin conjugate))	pull-down binding Z-score [1]	pull-down binding Z-score [2]	pull-down binding Z-score [3]
GUCUAAUCUCAAACCUUUUGAGAGAGAU	-1.19	-1.07	-0.801	-0.695
AAGGGGGCCGUGGGGUGGGAGCUGGGGAA [G4_2A2_BCL2]	6.6	4.88	8.07	9.67
AUUGGCGACCCUGCUCAAU [DMSMaPseq_invitro_SARS-CoV-2_Motif_311]	0.0933	-0.232	0.191	-0.309
GAGACAUUUAAACUGUCUU	-0.91	-1.06	-0.469	-0.286
AGUCAUAACAAGAGAAGUGGGUUUUGUCGUGCCUGGUUUGCCUGGCACGAUAUUACGCACAACUAAUGGUGACU [DMSMaPseq_invitro_SARS-CoV-2_Motif_162]	-0.62	-0.252	-0.612	-0.178
AUGGCCCCGAUUUCAGCUAU [SHAPE_invivo_SARS-CoV-2_Motif_151]	-0.668	-0.0238	-0.51	-0.281
AAAUUUACAAAACACCACCAAUUAAAGAUUUUGGUGGUUUUAAUUU [DMSMaPseq_invitro_SARS-CoV-2_Motif_425]	1.06	-0.725	1.34	0.331
UCAAAAAGAAAUUGA [SHAPE_invivo_SARS-CoV-2_Motif_472]	-0.459	-0.626	-0.145	0.153
CUGUUGAUUCAUCACAG	1.14	-0.421	1.37	0.174
UCCACUAGCAUCUUUAUUGGAGAUGUGCCACAGCACACAGAUUGGUGGAAUUAGGAUGGUAGACAUCCUUAGGCAGAACCCAACAGAAGAGCAAGCCGUGGA	-0.545	0.0456	-0.764	-0.269
GGUGGAAUUGGACGAUUCUACAUCCAAAUGUGCACC [IAV_invivo_NP_5_Motif_3+IAV_invivo_NP_5_Motif_3]	-0.779	-0.454	-0.714	-0.333
GCGCGGCCAGAAACUGGCAGCGC [mismatch-GA]	-1.33	-1.21	-0.773	-0.798
AACAUUAACCUCCACACGCAAGUUGUGGACAUGUCAAUGACAUAUGGACAACAGUUUGGUCCAACUUAUUUGGAUGGAGCUGAUGUU	-1.13	-0.533	-1	-0.423
GUACCAAAGGUGC [IAV_invivo_PB1_2_Motif_35+IAV_invivo_PB1_2_Motif_35]	-0.215	-0.382	-0.101	-0.26
GGCACAAAUGCAACACUGCAUUACCAUGCGGUUGUGCC [3-way model-1_rpoH]	-1.42	-1.27	-1.03	-0.624
AUGAACCACAAAUCAU [DMSMaPseq_invitro_SARS-CoV-2_Motif_444]	0.254	-1.03	0.463	-0.31
CGGGGCGGGAGGGGAAGGGACGCCCG [hsa-mir-6850]	6.39	5.1	6.93	7.75
GGGGUGUACAUCAAUACUGCCUU [IAV_invivo_PA_3_Motif_19+IAV_invivo_PA_3_Motif_19]	1.4	0.595	1.11	0.332
UGCUGAGGCUUCUAAGAAGCCUCGGCA	-0.224	-1.28	0.0854	-0.197
CUCGUCUAUCUUCUGCAGGCUGCUUACGGUUUCGUCCGUGUUGCAGCCGAUCAUCAGCACAUCUAGGUUUUGUCCGGGUGUGACCGAAAGGUAAGAUGGAGAG	-0.836	-0.32	-0.827	-0.563
AACACCAGUUUACUCAUUCUUACCUGGUGUU	-0.829	-1.46	-0.56	-0.421
GUGAUGAACUGAAGAUUAAUGCGGCUUGUAGAAAGGUUCAACACAUGGUUGUUAAAGCUGCAUUAUUAGCAGACAAAUUCCCAGUUCUUCAC	0.101	0.059	-0.0396	0.69

Sequence	pull-down binding Z-score (TO-N3 (biotin conjugate))	pull-down binding Z-score [1]	pull-down binding Z-score [2]	pull-down binding Z-score [3]
GAUGUAGAAUUGUUUGAAAAUAAAACAACAUU	-0.878	-0.444	-0.783	-0.136
CGUUCGGAUGCUCGAACUGCACCUCAUGGUCAUGUUAUGGUUGAGCUGGUAGCAGAACUCGAAGGCAUUCAGUACG [SHAPE_invitro_SARS-CoV-2_Motif_11]	0.0804	1.57	-0.289	-0.454
UAAAAUGAAUUAUCAAGUUA [DMSMaPseq_invitro_SARS-CoV-2_Motif_325]	-1.04	-1.2	-0.703	-0.451
AAAUUUUUGGCUUUGUGUGCUGACUCUAUCAUUAUUGGUGGAGCUAAACUUAAAGCCUUGAAUUU [SHAPE_invivo_SARS-CoV-2_Motif_45]	-0.00867	-0.994	0.0535	-0.123
UCCAUUUUUGGGUGUUUAUUACCACAAAAACAACAAAAGUUGGA [SHAPE_invitro_SARS-CoV-2_Motif_398]	-1.29	-0.616	-1.12	0.136
AAUAUUGCUUUGCUUGUACAGUAAGUGACAACAGAUGUUUCAUCUCGUUGACUUUCAGGUUACUAUAGCAGAGAUAUU [DMSMaPseq_invitro_SARS-CoV-2_Motif_488]	-0.0703	0.237	-0.135	0.152
AACACUUCCCACAGAAGUGUU	0.0543	-0.817	-0.222	-0.407
CUAACAUGCUUAG [SHAPE_invitro_SARS-CoV-2_Motif_280]	0.578	-0.734	0.709	-0.299
ACAGGUUUUAUCGAACCUGU [IAV_invivo_PB1_2_Motif_25+IAV_invivo_PB1_2_Motif_25]	-0.828	-1.54	-0.147	-0.571
GAUCUAAAACCAGUC [DMSMaPseq_invitro_SARS-CoV-2_Motif_121]	-0.0985	-0.546	-0.0402	0.0363
GCGCUGCCAGAAACUGGCCCAGCGC [bulge-CC]	-0.282	0.352	-0.161	-0.288
CAAUGUGUGAUAUCAGACAACUACUAUUUGUAGUUGAAGUUGUUGAUAAGUACUUUG [DMSMaPseq_invitro_SARS-CoV-2_Motif_268]	0.105	-0.156	-0.462	-0.487
UAAAGAACUUUAAGUCAGUUCUUUA	-1.25	-1.19	-0.827	-0.501
UAUUACAGAUCUUUACCAGGAGUUUUCUGUGGUG	-0.72	-0.779	-0.624	-0.388
UACCGAUGCCAUAGAGGUG [IAV_invivo_PB1_2_Motif_30+IAV_invivo_PB1_2_Motif_30]	-0.0495	0.166	-0.183	-0.0397
GGGCCUCCCUGUUCUCAGCGGUCC [IAV_invivo_PA_3_Motif_11+IAV_invivo_PA_3_Motif_11]	-0.152	-0.287	-0.00636	-0.456
ACAACCCUUAAGGGUGU [SHAPE_invivo_SARS-CoV-2_Motif_115]	-1.19	-1.1	-0.802	-0.665
GUUCUUUGAGAAC [IAV_invivo_PA_3_Motif_25+IAV_invivo_PA_3_Motif_25]	0.0597	-0.894	0.296	-0.317
ACACUAAUUCUUUCACACGUGGUGU [DMSMaPseq_invitro_SARS-CoV-2_Motif_381]	-0.398	-0.973	-0.0462	-0.0877
AACGGGGCGGGCCGGGGGCGGGGUAA [G4_2A2_VEGF-Pu22]	6.62	4.88	8.27	10.4
GGCUGGUGGCACUACUGAAAUGCUAGCGAAAGCUUUGAGAAAAGUGCCAACAGAC	0.418	0.4	0.234	-0.33
